According to the nanobody polyreactivity screen of Harvey et al. (2022):

Assay: yeast display, Sf9 membrane polyspecificity reagent, FACS + sequencing; frameworks hold sequencing errors
Summary of the method: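 Galactose-induced (36–48 hours) yeast carrying a synthetic nanobody display library were exposed to 10% biotinylated, detergent-solubilized Sf9 membrane reagent at 4 °C for 1 hour. FACS followed streptavidin microbead enrichment, using low and high (top ~1%) gates for expression (anti-HA) and reagent binding (streptavidin). Colony PCR, MiSeq 2 × 250 sequencing and CDR-length filtering followed. Labels for polyreactivity reflect the gate of origin.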

Q: Which “polyreactivity (PSR sort gate)” value does the source give for “QVQLVESGGGLVQAGGSLRLSCAASGSTFYLYAMGWYRQAPGKERELVATITNGGGTNYADSVKGRFTISRDNAKNTVYLQMNSLKAEDTAVYYCAAKWYHRDGDYWGQGTQVTVSS” here?
A: low polyreactivity

Q: Which “polyreactivity (PSR sort gate)” value does the source give for “QVQLVESGGGLVQAGGSLRLSCAASGRTFLAYTMGWYRQAPGKEMELVAAISTPGGSTYYADSVKGRFTISRDNAKNTVYIQMNSLKPEDTAVYYCAAADSTWFDWGNYWYYYWGQGTQVTVSS” here?
A: low polyreactivity

Q: Which “polyreactivity (PSR sort gate)” value does the source give for “QVQLVESGGGLVQAGGSLRLSCAASGSTFWYYGMGWYRQAPGKERELVAAITRGGSTYYADSVKGRFTISRDNAKNTVYLQMNSLKPEDTAVYYCARAPSYSTGVSIRDYWGQGTQVTVSS” here?
A: high polyreactivity

Q: With “QVQLEESGGGLVQAGGSLRLSCAASGSTFVVYAMGWYRQAPGKERELVAAISGRGGRTYYADSVKGRFTISRDNAKNTVYLQMISLKPEDTAVYYCSTRYNNLYTIRVGEYDSWGQGTQVTVSS” as the sequence, how does the “polyreactivity (PSR sort gate)” value read?
A: high polyreactivity

Q: For “QVQLVESGAGLVQEGGSLRLICAASGRTFRGSDMGWYSPAPGKERELVAAITSGGSTNYADSVKGRFTISRDNAKNTVYLHMNSLKPEDPAVYYCNRDTSKYGLWRYIYDYWGQGTQVNVSS”, which “polyreactivity (PSR sort gate)” value is on record?
A: low polyreactivity

Q: For “QVQLVESGGGLVQAGGSLRLSCAASGFTFKRYAMGWYRQAPGKERELVAAISYSGGSTYYADSVKGRYTISRDNAKNTVYLQMNSLKPEVTAVYYCNTGRRYYSYRRDYWGQGTQVTVSS”, which “polyreactivity (PSR sort gate)” value is on record?
A: high polyreactivity

Q: With “QVQLVESGGGLVQAGGSLRITCAASGLTFPPNAMGWYRQAPGKERELVAAITRSGGSTYYADSVKGRFTISRDNAKNTFYLQMNSLKPEDTAVYYCAVYLPYSQRYVHYYYWGQGPQVTVSS” as the sequence, how does the “polyreactivity (PSR sort gate)” value read?
A: high polyreactivity

Q: With “QVQLVESGGGLVQAGGSLRLSCAASGYIFSYYTMGLYRQAPGKERELVASNRWGGGRTYYADSVKGRFTISRDNAKNTVYLQMNSLKPEDTAVYYCNVKSSRLLDVGRMEYWGQGTQVTVSS” as the sequence, how does the “polyreactivity (PSR sort gate)” value read?
A: high polyreactivity

Q: For “QVQLVESGGGLVQAGGSLRLSCAASGFTFSYYPMGWYRLAPGKERELVAAITSGGSTYYADSVKGRFTISRDNAKNTVYLQMNSLKPEDTAVYYCNARGYGTLNVRRERMDYWGQGTQVTVSS”, which “polyreactivity (PSR sort gate)” value is on record?
A: high polyreactivity

Q: For “QVQLVESGGGLVLAGGSLRLSCAASGRTFGWNAMGWYRQAPGTERELVAAISWSGGSTSYADSVKARFTISRDNAKNTVYLQMNSLKPEDTAVYYCGKLDSYGMYYWGQGTQVTVSS”, which “polyreactivity (PSR sort gate)” value is on record?
A: low polyreactivity

Q: For “QVQLVESGGGLVQAGGSLRLSCAASGRNFYQYGMGWYREAPGKERELVAAISDSGGGTYYADSVKGRFTISGDNAKNTVYLQMNSLKPEDSAVYYCAATYVGPRRRYYYWGQGTQVTVSS”, which “polyreactivity (PSR sort gate)” value is on record?
A: high polyreactivity

Q: With “QVQLVESGGGLVQAGGSLRLSCAASGRTFSPYPMGWYRQAPGKERELGAAINWTGGSTYYADSVKGRFTISRDNAKNTVYLQMNSLKPEVTAVYYCNADWWYGYDYWGQGTQVTVSS” as the sequence, how does the “polyreactivity (PSR sort gate)” value read?
A: low polyreactivity

Q: With “QVQLVESGGGLVQAGRSLRLSCAASGRIFYGYAMGWYRQAPGRERELVAANTYIGGTYYADSVKGRFTISRDNAKNTVYLQMKSLKPEDTAVYYCATEPFYTYGYYTYPYWYDYWGQATQVTVSS” as the sequence, how does the “polyreactivity (PSR sort gate)” value read?
A: low polyreactivity

Q: For “QLQLVESGGGLDQAGGSLRLSCAASAFTFGYYSKGWNRQAPGKQTELVASISRSGGSTNYADSVKGRFTISRDNAKKTVYLQMNSLIPEDNAVYYCNNRVNTYRSVSRRYDYWGQGTQVTLSS”, which “polyreactivity (PSR sort gate)” value is on record?
A: high polyreactivity

Q: For “QVQLVESGGGLVQAGGSLRLSCAASGSTFYKSTMGCYRQPPGKESELVPAISGSATTTYYADSVKGRFTISRDNAKNTVYLQMNSLKPEDTAVYYCAARRFSPGSSGHGYWGQGTQVNVSS”, which “polyreactivity (PSR sort gate)” value is on record?
A: high polyreactivity

Q: Which “polyreactivity (PSR sort gate)” value does the source give for “QVQLEESGRGLVQAGGSLRLSCAASGSTLSTYSMGWYRQAPGKERELVAAITWSDDSTYYADSVKGRFTISRDNAKNTFYLQMNSLKPEDTAVYYCAAEYISWYFGYDYWGQGTQVTVSS” here?
A: high polyreactivity

Q: With “QVQLVESGGGLVQAGGSLRLSCAASGSTFSTNAMGWYRQAPGQERELVAAISSSSGRTYYADSVKGRFTISRDNAKNTVYLQMNSLKPEDTAVYYCAAANQGYRSGRKGVQRFDYWGQGTQVTVSS” as the sequence, how does the “polyreactivity (PSR sort gate)” value read?
A: high polyreactivity

Q: For “QVQLVESGGGLVQAGGSLRLSCAASGSIFGSYAMGWYRQAPGKERELVASITRVDSTNYADSVKGRFTISRDNAKNTVYLQMNSLKPEDTAVYYCNAGSRTTAGGMDSWGQGTQVTVSS”, which “polyreactivity (PSR sort gate)” value is on record?
A: low polyreactivity

Q: For “QVQLQESGGGLVQACGSQRLSCAASGSISEGQDMGWYRRAPGKESEFVAGIAPCATTYYADSVKGRFTISRDNAKNSVYLQMNSLKPEDTAVYYCAARSVTETDHDYWGQCTQVTVSS”, which “polyreactivity (PSR sort gate)” value is on record?
A: low polyreactivity

Q: For “QVQLVESGGGLVQAGGSLRLSCAASGRTFRNNAMGWYRQAPGKERELDAAIKGSGGSTYYADSVKGRFTISRDNAKNTVYLQMNSLKPEDTAVYYCAKAVVPWGPNFRPNHTRGYYWGQGTQATVSS”, which “polyreactivity (PSR sort gate)” value is on record?
A: low polyreactivity

Q: With “QVQLVESGGGLDPAGGSLRLSCAASGFTFYRNAMGWYRQAPGKERELVAGITRSGGSTYYADSVKGRFTISRDNAKNTVYLQMNSLKPEDTAVYYCNKAYGGVKYSGTYDYWGQGTQVTVSS” as the sequence, how does the “polyreactivity (PSR sort gate)” value read?
A: high polyreactivity

Q: Which “polyreactivity (PSR sort gate)” value does the source give for “QVQLVDSGGGLVQAGGSLRLSCAASGFIFSDYAMGWYRQAPGKEREFVAAISSGGSTYYADSVKGRFTISRDNAKNTVYLQMNSLKPEDTAVYYCNALWYREMDYWGQGTQVTVSS” here?
A: high polyreactivity

Q: With “QVQLVESGGGLVQAGGSHRLSCAASGRIFAYNAMGWYRQAPGKERELVAAISSGGNTYYADSVKGRFTISRDNAKNTVYLQMNSLTPEDTAVYYCNAGVGWHRYYSNYDYWGQGTQVTVSS” as the sequence, how does the “polyreactivity (PSR sort gate)” value read?
A: low polyreactivity

Q: For “QVQLVESGGGLVQAGGSLRLSCAASGGIFAYMGWYRQAPGKERELVASITSSGGSTYYADSVKGRFTISRDNAKNTVYLQMNSLKPEDTAVYYCAADPDFYKSVQYDYWGQGTQVTVSS”, which “polyreactivity (PSR sort gate)” value is on record?
A: low polyreactivity

Q: With “QVQLVESGGGLVQAGGSLRLSCAASGITFTGFAMGWYRQAPGKERELVAAITWSSGSTYYADSVKGRFTISRDNAKNTVYLQMNSLKPEDTAVYYCNAGYWYDGPDYIPEYDYWGQGTQVTVSS” as the sequence, how does the “polyreactivity (PSR sort gate)” value read?
A: low polyreactivity

Q: Which “polyreactivity (PSR sort gate)” value does the source give for “QVQLVDSGGCLVQAGGSLRLSCDASGRISQNAMGWYRQAPGKERELVAAITFSGGSTYYADSVKGRFTISRDNAKNTVYLQMNSLKPEDTAVYYCNVRQYTDGLKYDYWGQGTQVTVSS” here?
A: low polyreactivity

Q: With “QVQLEESGGGIVQAGGSLRLSCAASGRTFGANAMGWYRQAPGKERELVAAISSSDDSTYYADSVKGRFTISRDNAKNTVYLQMNSLKPEDTAVYYCAAEDVYPQLDYWGQGTQVTVSS” as the sequence, how does the “polyreactivity (PSR sort gate)” value read?
A: low polyreactivity

Q: For “QVQLVESGGGLGQAGGSLRLSCAASGSTFYKYAMGWYRQAPGKERELVASITWSGTSTYYADSVKGRFTISRDNQKNTVFLQMNSLKAEDTAVYYCAAPKLDDYDYWGQGTQVTVSS”, which “polyreactivity (PSR sort gate)” value is on record?
A: low polyreactivity

Q: With “QVQLVESGGGLVQAGGSLRLSCAASGSIFYYNAMGWSRQAPGKERELVAAIRSTGSSNDADSVKGRFTISRDNAKNTVYLQMNSLKPEDTAVYYCAADQYGRSRDYGYGYWGHGTQVTVSS” as the sequence, how does the “polyreactivity (PSR sort gate)” value read?
A: low polyreactivity

Q: For “QDQLVESGGGLVQAGGSLRLSCAASGRTFPWYAMGWYRPAPGKERELVAAISTGGSRTYYADSVKGRFTISRDNAKNTVYLQMNSLKPEDTAVYYCNARNTLRDYPYGYWGQGTQVTVSS”, which “polyreactivity (PSR sort gate)” value is on record?
A: high polyreactivity

Q: With “QVQLVESGGGLVQAGGSLLLSCAASGSILRMYVMGWYRQAPGKESELVADRSDRGGSTYYADSVKGRFTISRDNAKNTVYLQMNSLKPEDTAVYYCAKDSETAGATYTEYDYWGQGTQVTVSS” as the sequence, how does the “polyreactivity (PSR sort gate)” value read?
A: low polyreactivity
